Reference: article PMC6945111, “Cryo-EM Structure of Nucleotide-Bound Tel1^ATM Unravels the Molecular Basis of Inhibition and Structural Rationale for Disease-Associated Mutations” (Structure(London, England:1993), 2020)

Legend:
[1] = target: Saccharomyces cerevisiae Tel1 (Saccharomyces cerevisiae) (UniProt P38110); assay: cryo-EM structure; Tel1 100 nM with 1 mM AMP-PNP and 4 mM Mg(OAc)2, diluted into 50 mM Tris-HCl, 50 mM NaCl, pH 7.4; C2 symmetry applied; homodimer
Tel1 = target: T1, Tel1 (Saccharomyces cerevisiae, UniProt P38110); assay: cryo-EM structure; format: binding; conditions: 3.7-3.9 A resolution; 1 mM AMP-PNP, 4 mM Mg(OAc)2, pH 7.4, on ice; kinase active site, one Mg2+ modelled, 1 ligand per monomer
T1 construct: full-length 2787 residues, homodimer; expressed as GST-Tel1 (pBL602, Gal promoter) in S. cerevisiae PY265
T1 sequence (P38110 whole entry): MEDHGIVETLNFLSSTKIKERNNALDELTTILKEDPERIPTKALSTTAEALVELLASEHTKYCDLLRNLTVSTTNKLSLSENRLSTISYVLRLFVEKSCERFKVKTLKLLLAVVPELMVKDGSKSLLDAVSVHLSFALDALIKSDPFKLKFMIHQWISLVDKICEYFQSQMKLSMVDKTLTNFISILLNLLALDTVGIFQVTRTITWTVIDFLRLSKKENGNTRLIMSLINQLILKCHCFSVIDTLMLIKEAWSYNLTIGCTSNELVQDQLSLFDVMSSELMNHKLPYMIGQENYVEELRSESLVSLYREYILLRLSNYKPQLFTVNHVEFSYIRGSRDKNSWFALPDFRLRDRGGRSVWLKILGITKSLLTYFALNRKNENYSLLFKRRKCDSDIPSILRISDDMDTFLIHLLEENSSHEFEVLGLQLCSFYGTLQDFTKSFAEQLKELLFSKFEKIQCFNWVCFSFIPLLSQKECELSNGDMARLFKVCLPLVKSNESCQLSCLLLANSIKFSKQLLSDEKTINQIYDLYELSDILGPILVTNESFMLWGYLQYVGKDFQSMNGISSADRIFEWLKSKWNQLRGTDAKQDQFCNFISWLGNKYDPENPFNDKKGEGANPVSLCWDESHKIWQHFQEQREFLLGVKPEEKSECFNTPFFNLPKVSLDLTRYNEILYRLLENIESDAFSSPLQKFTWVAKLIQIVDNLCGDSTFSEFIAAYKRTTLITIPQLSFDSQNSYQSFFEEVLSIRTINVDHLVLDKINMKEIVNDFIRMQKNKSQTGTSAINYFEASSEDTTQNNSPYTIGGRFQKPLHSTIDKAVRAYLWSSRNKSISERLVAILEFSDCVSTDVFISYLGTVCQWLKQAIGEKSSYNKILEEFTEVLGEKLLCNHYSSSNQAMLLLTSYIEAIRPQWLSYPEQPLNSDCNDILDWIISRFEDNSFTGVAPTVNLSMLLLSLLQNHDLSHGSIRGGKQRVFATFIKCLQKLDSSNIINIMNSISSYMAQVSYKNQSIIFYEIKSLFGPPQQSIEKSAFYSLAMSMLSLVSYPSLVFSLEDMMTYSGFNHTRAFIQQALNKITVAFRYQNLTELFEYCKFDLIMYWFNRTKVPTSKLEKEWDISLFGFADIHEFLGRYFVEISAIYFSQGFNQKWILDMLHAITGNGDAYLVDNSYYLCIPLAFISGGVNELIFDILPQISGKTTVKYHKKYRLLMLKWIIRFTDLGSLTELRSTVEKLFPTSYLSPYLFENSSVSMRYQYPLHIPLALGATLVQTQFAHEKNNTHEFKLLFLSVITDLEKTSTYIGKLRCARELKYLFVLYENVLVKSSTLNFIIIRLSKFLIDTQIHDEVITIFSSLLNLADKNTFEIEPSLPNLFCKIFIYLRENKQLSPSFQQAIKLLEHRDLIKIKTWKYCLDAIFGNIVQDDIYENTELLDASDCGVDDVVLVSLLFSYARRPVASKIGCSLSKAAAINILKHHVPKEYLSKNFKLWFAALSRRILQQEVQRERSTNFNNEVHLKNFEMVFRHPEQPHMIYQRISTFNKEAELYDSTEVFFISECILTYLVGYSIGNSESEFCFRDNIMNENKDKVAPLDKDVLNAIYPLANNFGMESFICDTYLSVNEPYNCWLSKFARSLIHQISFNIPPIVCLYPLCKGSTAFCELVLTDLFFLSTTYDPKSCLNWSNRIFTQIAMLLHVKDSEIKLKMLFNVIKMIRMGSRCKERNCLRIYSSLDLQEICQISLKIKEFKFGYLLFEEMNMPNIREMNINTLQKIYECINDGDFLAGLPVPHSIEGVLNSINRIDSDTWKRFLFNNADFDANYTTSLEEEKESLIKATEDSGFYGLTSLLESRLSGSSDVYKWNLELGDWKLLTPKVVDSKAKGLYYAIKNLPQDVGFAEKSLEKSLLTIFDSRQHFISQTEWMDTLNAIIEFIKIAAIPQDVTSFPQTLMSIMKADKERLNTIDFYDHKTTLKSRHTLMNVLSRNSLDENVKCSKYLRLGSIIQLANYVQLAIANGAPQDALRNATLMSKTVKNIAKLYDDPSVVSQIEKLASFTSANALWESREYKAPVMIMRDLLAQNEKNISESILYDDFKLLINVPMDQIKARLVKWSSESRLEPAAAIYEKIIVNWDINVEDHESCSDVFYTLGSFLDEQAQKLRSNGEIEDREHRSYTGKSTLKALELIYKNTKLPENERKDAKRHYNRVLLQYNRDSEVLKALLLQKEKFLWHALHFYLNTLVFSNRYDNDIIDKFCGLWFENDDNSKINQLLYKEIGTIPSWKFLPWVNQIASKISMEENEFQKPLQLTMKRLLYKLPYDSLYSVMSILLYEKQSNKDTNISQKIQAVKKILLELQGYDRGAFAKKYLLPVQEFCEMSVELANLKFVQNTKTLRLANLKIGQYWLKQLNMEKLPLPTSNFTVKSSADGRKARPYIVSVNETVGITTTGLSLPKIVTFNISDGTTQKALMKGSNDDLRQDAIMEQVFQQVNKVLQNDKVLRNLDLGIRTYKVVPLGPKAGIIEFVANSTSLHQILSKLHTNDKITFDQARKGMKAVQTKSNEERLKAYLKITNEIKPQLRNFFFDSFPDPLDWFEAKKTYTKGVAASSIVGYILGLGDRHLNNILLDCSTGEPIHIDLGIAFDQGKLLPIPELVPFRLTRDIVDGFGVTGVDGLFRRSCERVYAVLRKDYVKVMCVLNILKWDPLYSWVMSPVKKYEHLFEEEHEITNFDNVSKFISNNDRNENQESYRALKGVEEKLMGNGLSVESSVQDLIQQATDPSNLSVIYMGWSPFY

Compound	stoichiometry N [1]	cryo-EM structure (Tel1)
Saccharomyces cerevisiae Tel1, P38110 1-2787	2	
Nc1ncnc2c1ncn2[C@@H]1O[C@H](COP(=O)(O)OP(=O)(O)NP(=O)(O)O)[C@@H](O)[C@H]1O [AMP-PNP]		clear density for AMP-PNP
